From publication PMC12393501, “Recruitment of Mre11 to recombination sites during meiosis” (Research Square, 2025)

B1: HisSUMO-tagged Mer2 [S. cerevisiae] / MBP-tagged Mre11-C49 peptide [S. cerevisiae] (parent)
chain 1: SYGLLNGRKTKTKTRPAASTKTASRRGKGRASRTPKTDILGSLLAKKRK
chain 2: MVARGRTDEISTDVSEANSEHSLMITETSSPFRSIFSHSGKVANAGALEESDKQILEWAGKLELESMELRENSDKLIKVLNENSKTLCKSLNKFNQLLEQDAATNGNVKTLIKDLASQIENQLDKVSTAMLSKGDEKKTKSDSSYRQVLVEEISRYNSKITRHVTNKQHETEKSMRCTQEMLFNVGSQLEDVHKVLLSLSKDMHSLQTRQTALEMAFREKADHAYDRPDVSLNGTTLLHDMDEAHDKQRKKSVPPPRMMVTRSMKRRRSSSPTLSTSQNHNSEDNDDASHRLKRAARTIIPWEELRPDTLESEL

Variants of: B1
Experiment: co-expression Ni-NTA pulldown, anti-MBP immunoblot quantification
Settings: with MBP-tagged Mre11-C49 peptide [S. cerevisiae]; co-expressed in E. coli; at least seven independent samples; parent: 1; read off a plot

| ratio to parent | Variant |
| --- | --- |
| 0.27 | chain 2 E50A Q54A E57A K61A |
